Results from US4014860A, “Plasminostreptin (enzyme inhibitor) and method for producing it from streptomyces” (Takeda Chemical Industries, Ltd., priority 1972, dated 1977).

Assays:
[1] = Isoelectric point by isoelectric focussing method; format: physicochemical
Description: 6. Isoelectric point: about 6.3 as determined by the isoelectric focussing method Acta Chemica Scandinavica,20, 820 (1966)

[2] = Solubility; format: physicochemical
[3] = Stability (heat treatment, remaining activity); format: physicochemical; conditions: 30 minutes' treatment at pH 4-9 and at 100° C
Method: More than 50 percent of the original activity remains intact even after a 30 minutes' treatment at pH 4-9 and at 100° C.

[4] = target: T1, kallikrein (Beyer, Depot - Padutin) (Sus scrofa, UniProt P00752); assay: Kallikrein esterase activity against benzoylarginine ethyl ester; format: biochemical; conditions: result in words
T1 construct: purchased Beyer (so in the source); Bayer) Depot - Padutin
T1 sequence (P00752 8-246): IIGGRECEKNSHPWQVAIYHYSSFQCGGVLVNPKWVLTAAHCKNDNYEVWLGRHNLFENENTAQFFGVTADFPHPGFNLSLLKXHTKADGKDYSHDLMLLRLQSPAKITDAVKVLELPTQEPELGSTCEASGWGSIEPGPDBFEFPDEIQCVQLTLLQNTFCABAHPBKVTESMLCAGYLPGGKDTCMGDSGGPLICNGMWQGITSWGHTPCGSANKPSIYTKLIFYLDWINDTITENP

[5] = target: T2, plasmin-UK (Homo sapiens, UniProt P00747); assay: Plasmin-casein system; format: biochemical; conditions: 50% inhibition of 0.4 casein units of plasmin-UK; casein substrate
T2 construct: purchased Midorijuji
Method: (§1) 2. Plasmin - UK (Midorijuji, urokinase-activated plasmin)
3. plasmin-casein system: Into a test tube are poured 1 ml of casein solution [4%, buffer (2)], 0.5 ml of buffer (2) and 0.3 ml of a plasminostreptin solution of varying concentrations, followed by the addition of 0.2 ml of plasmin-UK solution [2 casein units/ml, buffer (2)]. The mixture is blended well and allowed to stand at 37° C for 20 minutes. The reaction is terminated by the addition of 2 ml of 1.7 M perchloric acid and the system is allowed to stand at room temperature for another 1 hour. The reaction mixture is filtered through a filter paper and the absorbance of the resulting filtrate at 280 mμ is measured.
The plasmin-inhibiting activity of plasminostreptin is determined and indicated as follows.
Thus, the amount of plasminostreptin is determined which is required to effect a 50% inhibition of the activity of 0.4 casein units of plasmin-UK in the absence of plasminostreptin and is shown in units of ID50.
Target sequence in this assay (P00747 581-810 limits assumed): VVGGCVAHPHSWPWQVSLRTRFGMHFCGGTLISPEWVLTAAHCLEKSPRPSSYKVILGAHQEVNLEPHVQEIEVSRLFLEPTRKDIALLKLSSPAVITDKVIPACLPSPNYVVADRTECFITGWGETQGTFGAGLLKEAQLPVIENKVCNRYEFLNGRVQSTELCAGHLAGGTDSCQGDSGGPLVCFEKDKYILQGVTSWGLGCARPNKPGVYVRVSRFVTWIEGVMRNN
Target sequence in this assay (P00747 97-580 partner limits assumed): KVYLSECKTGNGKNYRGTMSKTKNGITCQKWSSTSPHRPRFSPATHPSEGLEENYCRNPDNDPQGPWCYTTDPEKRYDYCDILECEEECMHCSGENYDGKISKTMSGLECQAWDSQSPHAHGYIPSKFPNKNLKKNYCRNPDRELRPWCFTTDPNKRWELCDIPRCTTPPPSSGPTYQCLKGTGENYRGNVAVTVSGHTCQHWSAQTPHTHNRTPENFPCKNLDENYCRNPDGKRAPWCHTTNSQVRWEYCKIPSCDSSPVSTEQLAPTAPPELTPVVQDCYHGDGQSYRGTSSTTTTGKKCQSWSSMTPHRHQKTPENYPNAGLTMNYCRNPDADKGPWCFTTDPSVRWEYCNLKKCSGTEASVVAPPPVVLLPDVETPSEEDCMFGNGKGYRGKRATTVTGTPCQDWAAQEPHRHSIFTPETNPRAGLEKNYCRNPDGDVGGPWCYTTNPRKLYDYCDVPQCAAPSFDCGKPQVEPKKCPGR

[6] = target: T3, Plasmin-SK (Homo sapiens, UniProt P00747); assay: Plasmin-fibrin system (fibrin plate method); format: biochemical
T3 construct: made in house
T3 sequence (P00747 581-810 limits assumed): as the sequence (P00747 581-810 limits assumed) above
T3 sequence (P00747 97-580 partner limits assumed): as the sequence (P00747 97-580 partner limits assumed) above
Method: 1. Plasmin-SK: The euglobulin fraction obtained from human blood plasma is dissolved in buffer (1) which is described below and then, activated with streptokinase (Lederle) [Annual Report of Takeda Research Laboratories, 28, 140 (1969)].
1. Plasmin-fibrin system (fibrin plate method): Ten ml of a fibrinogen solution (1%, buffer (1)) is placed in a petri dish (9 cm in diameter) and gelled by the addition of 0.2 ml of thrombin [50 J. P. units (Japanese Pharmacopeia units)/ml, 0.145 M sodium chloride]. The gel is allowed to stand at 30° C for 30 minutes to prepare a fibrin plate. Meanwhile, paper discs (8mm in diameter, water-absorbing capacity: 0.025 ml) are dipped in a plasminostreptin solution of varying concentrations and allowed to dry on a filter paper in the air.
Then, 0.015 ml of a plasmin-SK solution is dropped onto each of the discs, which is placed on the above fibrin plate. After the system is allowed to stand at 37° C for 5 to 10 hours, the formation of lyzed zone in evaluated. The plasmin-inhibiting activity of plasminostreptin is indicated as the concentration of plasminostreptin solution required for a complete inhibition of fibrinolysis.

[7] = target: T4, Trypsin (Bos taurus, UniProt P00760); assay: Trypsin-casein system; format: biochemical; conditions: 50% inhibition of 10 μg of trypsin; casein substrate
T4 construct: purchased Sigma Type III
T4 sequence (P00760 24-246): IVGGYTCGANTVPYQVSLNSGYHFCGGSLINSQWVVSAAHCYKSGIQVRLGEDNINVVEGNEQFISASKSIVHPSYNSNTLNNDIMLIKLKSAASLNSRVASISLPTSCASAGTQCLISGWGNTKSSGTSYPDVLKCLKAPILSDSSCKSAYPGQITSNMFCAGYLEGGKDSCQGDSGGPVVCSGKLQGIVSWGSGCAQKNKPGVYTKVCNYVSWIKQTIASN
Method: 3. Trypsin (Sigma, crystalline, Type III)
Into a test tube are poured 1 ml of a casein solution [2%, buffer (2)], 0.5 ml of buffer (2) and 0.3 ml of a plasminostreptin solution of varying concentrations and after the addition of 0.2 ml of a trypsin solution [50 μg/ml, buffer(2)], the mixture is blended well and allowed to stand under conditions similar to those described for the plasmin-casein system. Thereafter, also in the same manner as described above, the amount of plasminostreptin required for a 50% inhibition of the activity of 10 μg of trypsin in the absence of plasminostreptin is determined and indicated in units of ID50.

[8] = target: T5, Nagarse (Bacillus amyloliquefaciens, UniProt P00782); assay: Nagarse-casein system; format: biochemical; conditions: 50% inhibition of 10 μg of Nagarse; casein substrate, pH 10.5
T5 construct: purchased Nagase Sangyo
T5 sequence (P00782 108-382): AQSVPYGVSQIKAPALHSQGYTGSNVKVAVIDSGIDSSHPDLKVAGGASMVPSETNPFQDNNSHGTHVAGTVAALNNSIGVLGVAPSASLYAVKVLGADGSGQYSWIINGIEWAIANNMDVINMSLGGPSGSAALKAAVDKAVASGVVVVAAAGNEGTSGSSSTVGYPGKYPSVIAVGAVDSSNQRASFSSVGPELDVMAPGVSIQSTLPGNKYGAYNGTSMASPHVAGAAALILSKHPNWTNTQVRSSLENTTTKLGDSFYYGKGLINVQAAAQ
Method: 5. Nagarse(crystalline protease, Nagase Sangyo)
(§2) Into a test tube are poured 1 ml of a casein solution [2%, buffer (3)], 0.5 ml of buffer (3), and 0.4 ml of a plasminostreptin solution of varying concentration and after the addition of 0.1 ml of either a Fusarium alkaline protease solution [40 μg/ml, buffer (3)] or Nagarse solution [100 μg/ml, buffer (3)], the mixture is blended well and allowed to stand under conditions similar to those described for the plasmin-casein system. Thereafter, also in the same manner as described above, the amount of plasminostreptin required for a 50% inhibition of the activity of 4 μg of Fusarium alkaline protease and 10 μg of Nagarse in the absence of plasminostreptin is determined, respectively, and indicated in units of ID50.

[9] = tested on: mice; assay: Acute toxicity tests in mice; format: in vivo
Description: The toxicity of plasminostreptin is extremely low and its LD50 values as determined by acute toxicity tests in mice are more than 5 g/kg orally, more than 5 g/kg intraperitoneally and 2 to 3 g/kg, intravenously.

[10] = target: T2, plasmin-UK; assay: Plasmin activity of rat blood plasma before and after intravenous administration; format: in vivo; conditions: rats, 0.8 mg intravenous, 1 hour after administration; result in words
Method: From each of five rats (male, SD, 7 weeks old), blood samples are taken before the administration of plasminostreptin and also 1 hour after the intravenous administration of 0.8 mg plasminostreptin. The plasma is separated from each of the blood samples and the abovementioned plasmin-UK solution is added in each plasma sample to various concentrations.
Immediately thereafter, the activity of plasmin in each plasma sample is determined using casein as substrate. The plasmin activity of blood plasma samples from each rat before and after the administration of plasminostreptin are compared.
Target sequence in this assay (P00747 581-810 limits assumed): as the sequence (P00747 581-810 limits assumed) above
Target sequence in this assay (P00747 97-580 limits assumed): as the sequence (P00747 97-580 partner limits assumed) above

[11] = target: T2, plasmin-UK; assay: Plasmin-fibrin system (determination of clot lysis time); format: biochemical; conditions: 50% inhibition of 0.08 casein units of plasmin-UK
Method: as §1
Target sequence in this assay (P00747 581-810 limits assumed): as the sequence (P00747 581-810 limits assumed) above
Target sequence in this assay (P00747 97-580 partner limits assumed): as the sequence (P00747 97-580 partner limits assumed) above
(2) Plasmin-fibrin system (determination of clot lysis time): Into a small test tube are poured 0.4 ml of a fibrinogen solution (0.25%, buffer (1)), 0.3 ml of buffer (1) and 0.1 ml of plasminostreptin solution of varying concentrations, followed by the addition of 0.1 ml of a plasmin-UK solution [0.8 casein units/ml, buffer (1)]. The mixture in blended well and immediately thereafter, 0.1 ml of a thrombin solution (50 J. P. units/ml, 0.145 M sodium chloride) is added. The resulting gel is allowed to stand at 37° C and the time necessary to lyse the clot is measured. The plasmin-inhibiting activity of plasminostreptin is determined by the procedure set forth in Biochimica Biophysica Acta. 214, 411 (1970). Thus, the amount of plasminostreptin which is required for a 50% inhibition of the activity of 0.08 casein units of plasmin-UK, which occurs in the reaction mixture, is determined from the concentration of plasminostreptin which will double the clot lysis time in the absence of plasminostreptin, and the above amount is indicated in units of ID50.

[12] = tested on: Fusarium alkaline protease; assay: Fusarium alkaline protease-casein system; format: biochemical; conditions: 50% inhibition of 4 μg of Fusarium alkaline protease; casein substrate, pH 10.5
Method: 4. fusarium crystalline alkaline protease (U.S.P. No. 3652399)
as §2

Substance: plasminostreptin
- Isoelectric point [1]: about 6.3
- Solubility in aqueous solution ([2]; ammonium sulfate at 60% saturation): almost completely precipitated
- Solubility ([2]; glacial acetic acid, alcohols, acetone, chloroform, ether, hexane and other organic solvents): only sparingly soluble
- Solubility in aqueous solution ([2]; neighborhood of pH 6): solubility drops
- Solubility ([2]; pyridine): slightly soluble
- Solubility ([2]; water and aqueous ammonia): Soluble
- original activity remaining intact [3]: More than 50%
- Inhibition of the activity of kallikrein [4]: can hardly be detected
- ID50 [5]: < 10 µg
- concentration for a complete inhibition of fibrinolysis ([6]; fibrin plate method, crystalline product of Example 1): 20 µg/mL
- Concentration for complete inhibition ([6]; fibrin plate, complete inhibition of fibrinolysis, Table 3): < 30 µg/mL
- ID50 [7]: < 5 µg
- ID50 [8]: < 5 µg
- LD50 ([9]; intraperitoneally): more than 5 g/kg
- LD50 ([9]; orally): more than 5 g/kg
- plasmin activity of blood plasma after administration [10]: significantly inhibited
- ID50 [11]: < 10 µg
- ID50 [12]: < 6 µg
